The text below walks through data of paper PMC10691131, “Self S-RNase reduces the expression of two pollen-specific COBRA genes to inhibit pollen tube growth in pear”.

The series addresses T1, PbC2H2.K16.2 (pear, UniProt UPI0005117FCC 5-185).
T1 sequence: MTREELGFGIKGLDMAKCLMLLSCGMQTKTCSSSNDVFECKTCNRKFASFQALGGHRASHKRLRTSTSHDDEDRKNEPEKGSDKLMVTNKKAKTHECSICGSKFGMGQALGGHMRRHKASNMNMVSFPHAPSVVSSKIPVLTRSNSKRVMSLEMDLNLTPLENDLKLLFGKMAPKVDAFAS
In words: EMSA; 10x and 100x cold probe weakens signal; Buffer, salt, pH and temperature not stated; EMSA per Guo et al. 2021, MST per Singh et al. 2014 (Monolith NT.115). Particulars: protein: recombinant; tags: His; label: 5' biotin (EMSA). On the technique in general: In EMSA bound probe runs differently from free probe, usually more slowly.

B1: PbCOB.A.2 promoter probe (PbC2H2.K16.2) (dsDNA)
DNA 1: TAAAAACATGATTGGTCCAATGCAAGTTAT
DNA 2: ATAACTTGCATTGGACCAATCATGTTTTTA
B1: the binding result is “binds”.

B2: PbCOB.A.1 promoter probe (dsDNA)
DNA 1: TTCGAGGTTTTTGGTCCAGAAAGAAGAAGA
DNA 2: TCTTCTTCTTTCTGGACCAAAAACCTCGAA
As for B2, the binding result was “binds”.
